Experimental data as given in the Human Domainome abundance scans (Beltran et al. 2025).
± gives the uncertainty stated by the source.

Test: abundance fitness (aPCA) (normalised: wild type 0, dead -1); higher = more abundant; growth selection in yeast, the domain comes from the species named
Conditions: Homo sapiens

| Substance | abundance fitness |
| --- | --- |
| SAFB-like transcription modulator D24G, Q9NWH9 | -0.282 ± 0.03 |
| SAFB-like transcription modulator D24H, Q9NWH9 | -0.145 ± 0.034 |
| SAFB-like transcription modulator D24I, Q9NWH9 | -0.693 ± 0.035 |
| SAFB-like transcription modulator D24K, Q9NWH9 | -0.157 ± 0.034 |
| SAFB-like transcription modulator D24M, Q9NWH9 | -0.229 ± 0.036 |
| SAFB-like transcription modulator D24N, Q9NWH9 | -0.098 ± 0.034 |
| SAFB-like transcription modulator D24P, Q9NWH9 | -0.598 ± 0.033 |
| SAFB-like transcription modulator D24Q, Q9NWH9 | -0.076 ± 0.037 |
| SAFB-like transcription modulator D24R, Q9NWH9 | -0.335 ± 0.033 |
| SAFB-like transcription modulator D24S, Q9NWH9 | -0.149 ± 0.032 |
| SAFB-like transcription modulator D24T, Q9NWH9 | -0.157 ± 0.033 |
| SAFB-like transcription modulator D24V, Q9NWH9 | -0.547 ± 0.033 |
| SAFB-like transcription modulator D24W, Q9NWH9 | -0.484 ± 0.039 |
| SAFB-like transcription modulator D24Y, Q9NWH9 | -0.433 ± 0.034 |
| SAFB-like transcription modulator D29A, Q9NWH9 | -0.681 ± 0.25 |
| SAFB-like transcription modulator D29C, Q9NWH9 | -0.854 ± 0.22 |
| SAFB-like transcription modulator D29E, Q9NWH9 | -0.5 ± 0.13 |
| SAFB-like transcription modulator D29G, Q9NWH9 | -0.725 ± 0.096 |
| SAFB-like transcription modulator D29I, Q9NWH9 | -1.09 ± 0.43 |
| SAFB-like transcription modulator D29K, Q9NWH9 | -1.06 ± 0.33 |
| SAFB-like transcription modulator D29M, Q9NWH9 | -0.081 ± 0.13 |
| SAFB-like transcription modulator D29N, Q9NWH9 | -0.483 ± 0.063 |
| SAFB-like transcription modulator D29P, Q9NWH9 | -0.656 ± 0.097 |
| SAFB-like transcription modulator D29Q, Q9NWH9 | -0.084 ± 0.07 |
| SAFB-like transcription modulator D29S, Q9NWH9 | -0.755 ± 0.19 |
| SAFB-like transcription modulator D29T, Q9NWH9 | -0.509 ± 0.12 |

| Substance | abundance fitness |
| --- | --- |
| SAFB-like transcription modulator D29V, Q9NWH9 | -0.717 ± 0.09 |
| SAFB-like transcription modulator D29W, Q9NWH9 | -0.882 ± 0.18 |
| SAFB-like transcription modulator D29Y, Q9NWH9 | -0.677 ± 0.089 |
| SAFB-like transcription modulator D40A, Q9NWH9 | -0.2 ± 0.046 |
| SAFB-like transcription modulator D40C, Q9NWH9 | -0.594 ± 0.12 |
| SAFB-like transcription modulator D40E, Q9NWH9 | -0.318 ± 0.086 |
| SAFB-like transcription modulator D40F, Q9NWH9 | -1 ± 0.39 |
| SAFB-like transcription modulator D40G, Q9NWH9 | -0.277 ± 0.069 |
| SAFB-like transcription modulator D40H, Q9NWH9 | -0.614 ± 0.24 |
| SAFB-like transcription modulator D40I, Q9NWH9 | -0.357 ± 0.092 |
| SAFB-like transcription modulator D40K, Q9NWH9 | -0.322 ± 0.099 |
| SAFB-like transcription modulator D40L, Q9NWH9 | -0.35 ± 0.066 |
| SAFB-like transcription modulator D40M, Q9NWH9 | -0.377 ± 0.067 |
| SAFB-like transcription modulator D40Q, Q9NWH9 | -0.486 ± 0.12 |
| SAFB-like transcription modulator D40R, Q9NWH9 | -0.354 ± 0.066 |
| SAFB-like transcription modulator D40S, Q9NWH9 | -0.148 ± 0.062 |
| SAFB-like transcription modulator D40T, Q9NWH9 | -0.375 ± 0.049 |
| SAFB-like transcription modulator D40V, Q9NWH9 | -0.417 ± 0.072 |
| SAFB-like transcription modulator D62A, Q9NWH9 | -0.386 ± 0.045 |
| SAFB-like transcription modulator D62C, Q9NWH9 | -0.198 ± 0.045 |
| SAFB-like transcription modulator D62E, Q9NWH9 | -0.397 ± 0.047 |
| SAFB-like transcription modulator D62F, Q9NWH9 | -0.526 ± 0.073 |
| SAFB-like transcription modulator D62G, Q9NWH9 | -0.534 ± 0.054 |
| SAFB-like transcription modulator D62H, Q9NWH9 | -0.253 ± 0.077 |
| SAFB-like transcription modulator D62I, Q9NWH9 | -0.339 ± 0.049 |
| SAFB-like transcription modulator D62K, Q9NWH9 | -0.531 ± 0.062 |

| Substance | abundance fitness |
| --- | --- |
| SAFB-like transcription modulator D62L, Q9NWH9 | -0.46 ± 0.047 |
| SAFB-like transcription modulator D62M, Q9NWH9 | -0.69 ± 0.081 |
| SAFB-like transcription modulator D62N, Q9NWH9 | -0.089 ± 0.05 |
| SAFB-like transcription modulator D62P, Q9NWH9 | -0.474 ± 0.076 |
| SAFB-like transcription modulator D62Q, Q9NWH9 | -0.334 ± 0.079 |
| SAFB-like transcription modulator D62R, Q9NWH9 | -0.331 ± 0.052 |
| SAFB-like transcription modulator D62S, Q9NWH9 | -0.191 ± 0.046 |
| SAFB-like transcription modulator D62T, Q9NWH9 | -0.212 ± 0.066 |
| SAFB-like transcription modulator D62V, Q9NWH9 | -0.397 ± 0.039 |
| SAFB-like transcription modulator D62W, Q9NWH9 | -0.66 ± 0.045 |
| SAFB-like transcription modulator D62Y, Q9NWH9 | -0.46 ± 0.064 |
| SAFB-like transcription modulator D64A, Q9NWH9 | -0.12 ± 0.04 |
| SAFB-like transcription modulator D64C, Q9NWH9 | -0.166 ± 0.05 |
| SAFB-like transcription modulator D64E, Q9NWH9 | -0.038 ± 0.034 |
| SAFB-like transcription modulator D64F, Q9NWH9 | -0.144 ± 0.048 |
| SAFB-like transcription modulator D64G, Q9NWH9 | -0.09 ± 0.041 |
| SAFB-like transcription modulator D64H, Q9NWH9 | -0.124 ± 0.058 |
| SAFB-like transcription modulator D64I, Q9NWH9 | -0.28 ± 0.072 |
| SAFB-like transcription modulator D64K, Q9NWH9 | -0.171 ± 0.058 |
| SAFB-like transcription modulator D64M, Q9NWH9 | -0.016 ± 0.04 |
| SAFB-like transcription modulator D64N, Q9NWH9 | 0.035 ± 0.037 |
| SAFB-like transcription modulator D64P, Q9NWH9 | -0.519 ± 0.039 |
| SAFB-like transcription modulator D64R, Q9NWH9 | -0.23 ± 0.032 |
| SAFB-like transcription modulator D64S, Q9NWH9 | -0.113 ± 0.035 |
| SAFB-like transcription modulator D64T, Q9NWH9 | -0.076 ± 0.04 |
| SAFB-like transcription modulator D64V, Q9NWH9 | -0.317 ± 0.045 |

| Substance | abundance fitness |
| --- | --- |
| SAFB-like transcription modulator D64W, Q9NWH9 | -0.068 ± 0.046 |
| SAFB-like transcription modulator E33A, Q9NWH9 | -0.455 ± 0.068 |
| SAFB-like transcription modulator E33C, Q9NWH9 | -0.68 ± 0.1 |
| SAFB-like transcription modulator E33D, Q9NWH9 | -0.916 ± 0.16 |
| SAFB-like transcription modulator E33F, Q9NWH9 | -0.645 ± 0.049 |
| SAFB-like transcription modulator E33G, Q9NWH9 | -0.974 ± 0.086 |
| SAFB-like transcription modulator E33H, Q9NWH9 | -0.512 ± 0.13 |
| SAFB-like transcription modulator E33K, Q9NWH9 | -0.89 ± 0.18 |
| SAFB-like transcription modulator E33L, Q9NWH9 | -0.123 ± 0.061 |
| SAFB-like transcription modulator E33M, Q9NWH9 | -0.007 ± 0.083 |
| SAFB-like transcription modulator E33N, Q9NWH9 | -0.755 ± 0.1 |
| SAFB-like transcription modulator E33P, Q9NWH9 | -1.16 ± 0.2 |
| SAFB-like transcription modulator E33Q, Q9NWH9 | -0.111 ± 0.079 |
| SAFB-like transcription modulator E33R, Q9NWH9 | -0.961 ± 0.077 |
| SAFB-like transcription modulator E33S, Q9NWH9 | -0.353 ± 0.078 |
| SAFB-like transcription modulator E33T, Q9NWH9 | -1.08 ± 0.17 |
| SAFB-like transcription modulator E33V, Q9NWH9 | -0.917 ± 0.094 |
| SAFB-like transcription modulator E33W, Q9NWH9 | -0.871 ± 0.1 |
| SAFB-like transcription modulator E57A, Q9NWH9 | -0.085 ± 0.082 |
| SAFB-like transcription modulator E57C, Q9NWH9 | -0.192 ± 0.096 |
| SAFB-like transcription modulator E57D, Q9NWH9 | -0.164 ± 0.086 |
| SAFB-like transcription modulator E57G, Q9NWH9 | -0.204 ± 0.044 |
| SAFB-like transcription modulator E57H, Q9NWH9 | 0.063 ± 0.16 |
| SAFB-like transcription modulator E57I, Q9NWH9 | 0.048 ± 0.39 |
| SAFB-like transcription modulator E57K, Q9NWH9 | -0.159 ± 0.11 |
